The numbers were not newly measured in article PMC9601870, which cites them from elsewhere.

This series concerns the target Cys32 (UniProt position 33, FWAEWCGPCKM). The note with it: not stated (thiol ionisation implies the reduced dithiol form; inferred).

As to Thioredoxin 1 (Trx) (Escherichia coli), the pKa is given as 7.1–7.4.
